Experiment [1] deals with CD3 (on human T cells) (human). The experiment is described as follows: flow cytometry titration on human T cells, same method as for Nalm6, fitted in GraphPad Prism8. A general note: In flow cytometry, cells or beads pass a laser one at a time.
The target of experiment [2] is T1, CD19 (on Nalm6 leukemia cells) (human, UniProt P15391 20-556).
T1 construct: whole, on cells; also called CD19抗原; Nalm6上的CD19抗原
T1 sequence (looked up): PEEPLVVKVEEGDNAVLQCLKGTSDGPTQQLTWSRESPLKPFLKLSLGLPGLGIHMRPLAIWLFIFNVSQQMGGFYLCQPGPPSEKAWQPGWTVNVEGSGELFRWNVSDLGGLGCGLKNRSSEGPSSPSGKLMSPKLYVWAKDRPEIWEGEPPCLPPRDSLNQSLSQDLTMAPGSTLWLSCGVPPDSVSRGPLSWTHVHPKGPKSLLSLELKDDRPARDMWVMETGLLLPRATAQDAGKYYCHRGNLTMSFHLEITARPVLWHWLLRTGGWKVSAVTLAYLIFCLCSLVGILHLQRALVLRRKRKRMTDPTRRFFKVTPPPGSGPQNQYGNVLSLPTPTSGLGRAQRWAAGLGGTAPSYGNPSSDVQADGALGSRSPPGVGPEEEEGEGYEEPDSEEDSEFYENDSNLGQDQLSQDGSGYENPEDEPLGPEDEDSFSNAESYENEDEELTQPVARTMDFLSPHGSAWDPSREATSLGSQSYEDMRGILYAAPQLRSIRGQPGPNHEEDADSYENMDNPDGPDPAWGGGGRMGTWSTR
Nature of the experiment: flow cytometry titration (0.05-100 nM) on Nalm6 cells, anti-His then APC anti-mouse IgG detection, fitted in GraphPad Prism8.

CD3 (on human T cells) (human), sequence (P07766 23-207, chain 1 of 4): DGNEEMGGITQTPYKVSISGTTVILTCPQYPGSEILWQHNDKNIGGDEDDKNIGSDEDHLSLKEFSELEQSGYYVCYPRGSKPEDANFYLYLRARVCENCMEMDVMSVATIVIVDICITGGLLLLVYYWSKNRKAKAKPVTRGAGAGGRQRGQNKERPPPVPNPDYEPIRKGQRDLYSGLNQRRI
CD3 (on human T cells) (human), sequence (P09693 23-182, chain 2 of 4, further chain): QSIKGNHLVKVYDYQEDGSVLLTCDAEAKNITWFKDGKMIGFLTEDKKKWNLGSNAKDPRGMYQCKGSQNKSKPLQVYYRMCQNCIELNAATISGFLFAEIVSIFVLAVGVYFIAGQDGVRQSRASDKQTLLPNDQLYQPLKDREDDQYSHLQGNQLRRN
CD3 (on human T cells) (human), sequence (P04234 22-171, chain 3 of 4, further chain): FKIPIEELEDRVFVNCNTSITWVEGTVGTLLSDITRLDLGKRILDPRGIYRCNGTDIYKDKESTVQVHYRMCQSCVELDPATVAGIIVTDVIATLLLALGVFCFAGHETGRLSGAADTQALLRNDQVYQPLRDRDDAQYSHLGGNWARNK
CD3 (on human T cells) (human), sequence (P20963 22-164, chain 4 of 4, further chain): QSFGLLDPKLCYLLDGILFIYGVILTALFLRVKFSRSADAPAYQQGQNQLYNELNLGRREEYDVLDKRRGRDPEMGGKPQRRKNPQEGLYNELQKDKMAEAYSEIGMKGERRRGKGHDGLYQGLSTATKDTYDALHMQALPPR

B1: CD19scFv-CD80-CD3scFv三特异性融合蛋白 (other)
chain: HHHHHHLEDIVLTQSPKFMSTSVGDRVSVTCKASQNVGTNVAWYQQKPGQSPKPLIYSATYRNSGVPDRFTGSGSGTDFTLTITNVQSKDLADYFCQQYNRYPYTSGGGTKLEIKRGGGGSGGGGSGGGGSQVQLQQSGAELVRPGSSVKISCKASGYAFSSYWMNWVKQRPGQGLEWIGQIYPGDGDTNYNGKFKGQATLTADKSSSTAYMQLSGLTSEDSAVYFCARKTISSVVDFYFDYWGQGTTLTVSSEFGGGGSGGGGSGGGGSGGGGSVIHVTKEVKEVATLSCGHNVSVEELAQTRIYWQKEKKMVLTMMSGDMNIWPEYKNRTIFDITNNLSIVILALRPSDEGTYECVVLKYEKDAFKREHLAEVTLSVKADFPTPSISDFEIPTSNIRRIICSTSGGFPEPHLSWLENGEELNAINTTVSQDPETELYAVSSKLDFNMTTNHSFMCLIKYGHLRVNQTFNWNTTKQEHFPDNGGGGSGGGGSGGGGSGGGGSVDADIELTQSPAIMSASPGEKVTMTCSASSSVSYMNWYQQKSGTSPKRWIYDTSKLASGVPARFSGSGSGTSYSLTISGMEAEDAATYYCQQWSSNPFTFGSGTKLELKRGGGGSGGGGSGGGGSQVQLQQSGAELARPGASVKMSCKASGYTFTRYTMHWVKQRPGQGLEWIGYINPSRGYTNYNQKFKDKATLTTDKSSSTAYMELTRLTSEDSAVYYCARYYDDHYSLDYWGQGTTVTVSSWSHPQFEK
notes: Expressed in ExpiCHO-S cells; also called 19TriTE; CD19scFv-CD80-CD3scFv重组融合蛋白
Regarding B1, the dissociation constant (Kd) (as a rule, a measure of binding affinity in units of concentration) in experiment [1] turned out to be 19.2 nM; in experiment [2], 11.7 nM.

For the origin of these results see patent CN114539423A (dated 2022).
